Biological target: T1, MBD3-GFP, O95983
T1 chain: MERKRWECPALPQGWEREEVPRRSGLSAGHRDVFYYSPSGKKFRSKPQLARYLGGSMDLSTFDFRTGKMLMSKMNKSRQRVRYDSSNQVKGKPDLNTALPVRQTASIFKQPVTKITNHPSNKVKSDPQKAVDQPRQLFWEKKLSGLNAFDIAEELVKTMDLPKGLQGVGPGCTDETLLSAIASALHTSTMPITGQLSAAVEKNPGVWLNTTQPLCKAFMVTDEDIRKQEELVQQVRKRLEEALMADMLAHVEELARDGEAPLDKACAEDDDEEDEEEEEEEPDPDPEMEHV
Assay: affinity purification with mass spectrometry
Conditions: remark: other sources report otherwise

- stoichiometry N: 2 per MBD3
B1: DOC-1, O14519 1-115 (natural protein)
chain: MSYKPNLAAHMPAAALNAAGSVHSPSTSMATSSQYRQLLSDYGPPSLGYTQGTGNSQVPQSKYAELLAIIEELGKEIRPTYAGSKSAMERLKRGIIHARGLVRECLAETERNARS

Source: publication PMC3592467
